This note sets out measurements from publication PMC11912573, “Dynamic Assembly of Pentamer-Based Protein Nanotubes” (ACS Nano, 2025).

Data set [1] concerns the molecule itself. As to the kind of experiment: cryo-EM structure; cpAaLS(119, C37S, A85C) twisted tubes, helical reconstruction in three classes (0-, 18-, 28-Å gap); 50 mM Tris-HCl pH 8.5, 0.15 M NaCl, 1 mM TCEP.
Data set [2] deals with the molecule itself. As to the kind of experiment: cryo-EM 2D classification; cpAaLS(119) capsomers without NaCl at pH 8.5; Titan Krios; 3D reconstruction unsuccessful (preferential orientation).
Data set [3] deals with the molecule itself. As to the kind of experiment: cryo-EM micrographs; Glacios microscope, micrographs of the assemblies; buffer of these samples not given.

Values joined by “and” are separate entries in the source; they are usually repeats but may differ in a detail not shown here. Equal values may be shown once.

B1: cpAaLS(119, C37S, A85C) (enzyme, Aquifex aeolicus)
chain: TLEQAIERAGTKHGNKGWEAALSAIEMANLFKSLRGTGGSGSSMQIYEGKLTAEGLRFGIVASRFNHALVDRLVEGAIDSIVRHGGREEDITLVRVPGSWEIPVAAGELARKEDIDAVIAIGVLIRGCTPHFDYIASEVSKGLANLSLELRKPITFGVITAD
notes: Aquifex aeolicus lumazine synthase (AaLS), from the new N-terminus at residue 120 to the native C-terminus; octapeptide linker connecting the native C- and N-termini; Aquifex aeolicus lumazine synthase (AaLS), from the native N-terminus to the new C-terminus at residue 119, with C37S and A85C; Made from cpAaLS(119) by two rounds of site-directed mutagenesis; source: E. coli BL21-Gold(DE3), …
In the case of B1, the binding result in data set [1] is “binds”.

B2: circularly permuted Aquifex aeolicus lumazine synthase cpAaLS(119) (enzyme)
chain: TLEQAIERAGTKHGNKGWEAALSAIEMANLFKSLRGTGGSGSSMQIYEGKLTAEGLRFGIVASRFNHALVDRLVEGAIDCIVRHGGREEDITLVRVPGSWEIPVAAGELARKEDIDAVIAIGVLIRGATPHFDYIASEVSKGLANLSLELRKPITFGVITAD
notes: Aquifex aeolicus lumazine synthase (AaLS), from the new N-terminus at residue 120 to the native C-terminus; includes the α-helix(120–131); octapeptide linker connecting the native C- and N-termini; Aquifex aeolicus lumazine synthase (AaLS), from the native N-terminus to the new C-terminus at residue 119; source: E. coli BL21-Gold(DE3), purified (heating at 70 °C, anion exchange, SEC)
The stoichiometry N is the number of molecules, sites or subunits per partner or assembly. Take B2: the “stoichiometry N” value in data set [2] is 5 and 10.

B3: circularly permuted Aquifex aeolicus lumazine synthase cpAaLS(84) (enzyme)
chain: ATPHFDYIASEVSKGLANLSLELRKPITFGVITADTLEQAIERAGTKHGNKGWEAALSAIEMANLFKSLRGTGGSGSSMQIYEGKLTAEGLRFGIVASRFNHALVDRLVEGAIDCIVRHGGREEDITLVRVPGSWEIPVAAGELARKEDIDAVIAIGVLIRG
notes: Aquifex aeolicus lumazine synthase (AaLS), from the new N-terminus at residue 85 to the native C-terminus; octapeptide linker connecting the native C- and N-termini; Aquifex aeolicus lumazine synthase (AaLS), from the native N-terminus to the new C-terminus at residue 84; source: E. coli BL21-Gold(DE3), purified (heating at 70 °C, anion exchange, SEC)
Consider B3, for which the binding result in data set [3] is listed as “binds”.
